The source of these data is US20110136740A1 (Stanford University, published 2011).

To fix the notation:
B1: engineered AgRP peptide b3I (soluble, N-terminal FLAG tag and C-terminal hexahistidine tag) (peptide)
chain: DYKDDDDKGCVRLHESCLGQQVPCCDPAATCYCRGRGDVKLRCYCRHHHHHH
modifications: ends and bridges not checked; cysteine pairing not given here
notes: also called clone b3I; β3-specific peptide b3I
B2: engineered AgRP peptide b3A (soluble, N-terminal FLAG tag and C-terminal hexahistidine tag) (peptide)
chain: B1 chain with R34V, K40R, L41R, R42K
modifications: ends and bridges not checked; cysteine pairing not given here
notes: also called clone b3A; β3-specific peptide b3A
B3: engineered AgRP peptide 2bA (soluble, N-terminal FLAG tag and C-terminal hexahistidine tag) (peptide)
chain: B1 chain with R34L, G35K, V39W, L41G, R42K
modifications: ends and bridges not checked; cysteine pairing not given here
notes: also called clone 2bA; αIIbβ3-specific peptide 2bA
B4: engineered AgRP peptide 2bO (soluble, N-terminal FLAG tag and C-terminal hexahistidine tag) (peptide)
chain: B1 chain with R34K, G35K, V39W, L41E
modifications: ends and bridges not checked; cysteine pairing not given here
notes: also called clone 2bO; αIIbβ3-specific peptide 2bO
B5: engineered AgRP peptide 2bJ (soluble, N-terminal FLAG tag and C-terminal hexahistidine tag) (peptide)
chain: B1 chain with R34N, G35K, V39W, K40R, L41S, R42K
modifications: ends and bridges not checked; cysteine pairing not given here
notes: also called clone 2bJ; αIIbβ3-specific peptide 2bJ

Residue numbers refer to the chain shown, from its start. Ends that are not written are not given here.

T4 sequence (P06756 31-1048, chain 1 of 2): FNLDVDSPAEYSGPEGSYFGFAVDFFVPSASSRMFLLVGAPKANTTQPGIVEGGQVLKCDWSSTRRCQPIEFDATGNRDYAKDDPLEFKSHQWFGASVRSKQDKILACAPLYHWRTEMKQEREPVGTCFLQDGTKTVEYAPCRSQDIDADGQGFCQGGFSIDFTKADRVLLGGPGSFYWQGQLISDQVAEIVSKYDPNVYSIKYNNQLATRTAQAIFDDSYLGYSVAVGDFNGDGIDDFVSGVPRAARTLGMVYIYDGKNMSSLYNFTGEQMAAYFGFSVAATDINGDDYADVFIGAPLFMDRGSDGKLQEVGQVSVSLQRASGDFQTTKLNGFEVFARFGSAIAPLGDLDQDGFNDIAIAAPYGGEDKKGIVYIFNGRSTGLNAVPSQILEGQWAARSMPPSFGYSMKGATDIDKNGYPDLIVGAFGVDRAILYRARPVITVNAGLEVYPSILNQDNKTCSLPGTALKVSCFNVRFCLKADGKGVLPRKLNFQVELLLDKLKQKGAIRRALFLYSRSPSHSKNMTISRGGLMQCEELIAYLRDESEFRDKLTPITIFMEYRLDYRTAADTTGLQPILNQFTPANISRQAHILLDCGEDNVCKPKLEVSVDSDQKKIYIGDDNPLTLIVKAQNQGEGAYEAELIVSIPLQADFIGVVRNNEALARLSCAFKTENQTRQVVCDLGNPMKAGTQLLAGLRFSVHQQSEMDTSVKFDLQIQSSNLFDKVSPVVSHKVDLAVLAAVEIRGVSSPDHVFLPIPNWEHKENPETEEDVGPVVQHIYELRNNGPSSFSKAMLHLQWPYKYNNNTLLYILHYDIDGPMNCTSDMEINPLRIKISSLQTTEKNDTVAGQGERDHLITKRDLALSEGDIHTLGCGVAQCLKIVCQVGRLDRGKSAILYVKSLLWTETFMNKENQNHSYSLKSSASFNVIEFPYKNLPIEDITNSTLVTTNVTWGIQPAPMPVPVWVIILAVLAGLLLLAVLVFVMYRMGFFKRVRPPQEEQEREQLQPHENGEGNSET
T4 sequence (P18084 24-799, chain 2 of 2): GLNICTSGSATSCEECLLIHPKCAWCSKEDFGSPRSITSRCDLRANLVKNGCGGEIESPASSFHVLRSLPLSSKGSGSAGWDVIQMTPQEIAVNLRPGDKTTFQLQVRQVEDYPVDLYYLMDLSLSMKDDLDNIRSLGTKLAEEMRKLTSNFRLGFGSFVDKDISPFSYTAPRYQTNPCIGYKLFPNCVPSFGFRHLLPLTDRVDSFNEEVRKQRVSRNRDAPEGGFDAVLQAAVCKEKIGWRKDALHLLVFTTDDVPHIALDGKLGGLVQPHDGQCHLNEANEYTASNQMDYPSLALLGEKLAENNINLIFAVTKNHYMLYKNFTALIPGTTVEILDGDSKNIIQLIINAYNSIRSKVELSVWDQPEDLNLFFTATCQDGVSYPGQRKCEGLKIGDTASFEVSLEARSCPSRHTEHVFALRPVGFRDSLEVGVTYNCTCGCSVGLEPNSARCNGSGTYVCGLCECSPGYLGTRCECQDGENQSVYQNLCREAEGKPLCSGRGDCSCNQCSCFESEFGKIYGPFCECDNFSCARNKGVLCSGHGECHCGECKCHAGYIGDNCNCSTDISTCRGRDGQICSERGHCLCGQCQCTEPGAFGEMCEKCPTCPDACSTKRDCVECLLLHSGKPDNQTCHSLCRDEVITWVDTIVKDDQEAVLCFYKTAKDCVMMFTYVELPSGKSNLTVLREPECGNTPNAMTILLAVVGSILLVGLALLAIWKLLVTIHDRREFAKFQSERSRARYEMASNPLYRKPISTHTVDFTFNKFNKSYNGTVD
T1 sequence (P06756 31-1048, chain 1 of 2): as the sequence (P06756 31-1048, chain 1 of 2) above
T1 sequence (P05106 27-788, chain 2 of 2): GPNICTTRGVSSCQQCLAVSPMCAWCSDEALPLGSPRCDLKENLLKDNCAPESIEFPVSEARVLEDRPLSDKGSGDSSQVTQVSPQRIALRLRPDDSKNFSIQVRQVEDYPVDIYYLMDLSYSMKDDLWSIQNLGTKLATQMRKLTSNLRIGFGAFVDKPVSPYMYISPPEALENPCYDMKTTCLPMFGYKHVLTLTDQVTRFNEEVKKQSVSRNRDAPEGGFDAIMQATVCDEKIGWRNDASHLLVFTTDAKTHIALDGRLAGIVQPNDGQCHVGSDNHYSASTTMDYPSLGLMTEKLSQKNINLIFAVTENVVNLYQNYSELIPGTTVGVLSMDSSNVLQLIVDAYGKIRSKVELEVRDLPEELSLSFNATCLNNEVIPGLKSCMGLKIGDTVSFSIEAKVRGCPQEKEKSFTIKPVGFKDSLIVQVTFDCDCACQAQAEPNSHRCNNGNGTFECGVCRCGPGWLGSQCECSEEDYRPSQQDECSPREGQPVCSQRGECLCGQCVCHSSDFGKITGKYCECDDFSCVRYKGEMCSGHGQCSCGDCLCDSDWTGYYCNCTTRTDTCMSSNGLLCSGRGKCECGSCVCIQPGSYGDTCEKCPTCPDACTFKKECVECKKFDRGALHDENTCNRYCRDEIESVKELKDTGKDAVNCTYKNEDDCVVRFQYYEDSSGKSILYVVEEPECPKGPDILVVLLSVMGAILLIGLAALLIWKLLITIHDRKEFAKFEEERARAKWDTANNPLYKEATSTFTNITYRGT

The first assay has as its target T1, αvβ3 integrin expressed on K562-αvβ3 cells (UniProt P06756 31-1048; P05106 27-788).
T1 construct: whole, on cells
The experiment in a line: flow cytometry, peptide titrated on K562-αvβ3 cells, anti-His detection.
With B1, the affinity, expressed as Kd, was 28 nM.

B2: the Kd (in general, the free concentration of one partner at which half of the binding sites on the other are occupied at equilibrium, for simple one-to-one binding) was 23 nM.

Another assay has as its target αIIbβ3 integrin on human platelets (human, UniProt P08514 32-1039; P05106 27-788). The experiment in a line: cell-based or functional assay.
Regarding B3, the “aggregation (IC50; nM), human platelets” value amounted to 72 nM.

For the molecule B4, the “aggregation (IC50; nM), human platelets” value stood at 110 nM.

As for B1, the “aggregation (IC50; nM), human platelets” value came to 66 nM.

For B2, the “aggregation (IC50; nM), human platelets” value was 50 nM.

Consider B5, for which the “aggregation (IC50; nM), human platelets” value is 91 nM.

Another assay addresses αIIbβ3 integrin on human platelets (human) (UniProt P08514). Nature of the assay: cell-based or functional assay.
The molecule eptifibatide (peptide) came in with an aggregation (IC50; nM), human platelets of 94 nM and an inhibition of ADP-induced platelet aggregation, IC50 of 80 nM.

The next assay deals with T2, αIIbβ3 integrin expressed on K562-αIIbβ3 cells (UniProt P08514 32-1039; P05106 27-788).
T2 construct: whole, on cells; also called cell surface expressed αIIbβ3 integrin; GPIIb-IIIa
The experiment in a line: flow cytometry, peptide titrated on K562-αIIbβ3 cells, anti-His detection. A general note: A flow cytometer gives signals particle by particle.
B3: the affinity, expressed as Kd, was 87 nM.

The molecule B4 displayed a Kd of 87 nM.

Regarding B1, binding was put at a Kd of 70 nM.

Consider B2, for which the Kd came out at 42 nM.

B5: the Kd worked out at 59 nM.

In a further assay the target is T1, αvβ3 integrin expressed on K562-αvβ3 …. The experiment in a line: flow cytometry, peptide titrated on K562-αvβ3 cells.
As to B1, the Kd was ~25 nM.

As to B2, the equilibrium dissociation constant (Kd) was ~25 nM.

The target in another assay is T3, α5β1 integrin naturally expressed on wild-type K562 cells (UniProt P08648 42-1049; P05556 21-798).
T3 construct: whole, on cells
T3 sequence (P08648 42-1049, chain 1 of 2): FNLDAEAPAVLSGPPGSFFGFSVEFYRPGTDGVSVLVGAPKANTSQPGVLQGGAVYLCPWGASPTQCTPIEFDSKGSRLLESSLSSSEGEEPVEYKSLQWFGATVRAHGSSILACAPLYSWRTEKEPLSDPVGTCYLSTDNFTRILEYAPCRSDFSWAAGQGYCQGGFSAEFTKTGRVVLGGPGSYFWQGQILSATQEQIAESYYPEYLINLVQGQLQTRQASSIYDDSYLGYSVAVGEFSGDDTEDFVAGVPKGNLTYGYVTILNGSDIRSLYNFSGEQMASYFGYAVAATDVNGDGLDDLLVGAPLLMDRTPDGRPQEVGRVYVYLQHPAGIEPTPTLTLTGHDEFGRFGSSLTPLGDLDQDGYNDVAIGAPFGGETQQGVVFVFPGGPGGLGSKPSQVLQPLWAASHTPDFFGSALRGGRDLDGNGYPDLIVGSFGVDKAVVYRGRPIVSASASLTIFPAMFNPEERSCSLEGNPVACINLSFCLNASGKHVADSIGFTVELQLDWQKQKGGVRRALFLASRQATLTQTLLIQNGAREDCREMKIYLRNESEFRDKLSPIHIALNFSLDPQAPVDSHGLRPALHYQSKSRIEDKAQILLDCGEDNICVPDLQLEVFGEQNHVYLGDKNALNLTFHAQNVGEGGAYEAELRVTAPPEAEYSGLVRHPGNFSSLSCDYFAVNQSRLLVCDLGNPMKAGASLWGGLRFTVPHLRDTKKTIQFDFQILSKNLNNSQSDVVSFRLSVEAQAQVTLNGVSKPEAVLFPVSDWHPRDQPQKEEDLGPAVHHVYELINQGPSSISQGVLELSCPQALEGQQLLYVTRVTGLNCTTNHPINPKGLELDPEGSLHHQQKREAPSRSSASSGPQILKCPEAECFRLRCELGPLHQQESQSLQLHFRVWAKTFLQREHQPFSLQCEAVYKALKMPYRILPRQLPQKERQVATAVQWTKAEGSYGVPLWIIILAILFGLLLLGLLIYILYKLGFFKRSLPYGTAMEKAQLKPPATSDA
T3 sequence (P05556 21-798, chain 2 of 2): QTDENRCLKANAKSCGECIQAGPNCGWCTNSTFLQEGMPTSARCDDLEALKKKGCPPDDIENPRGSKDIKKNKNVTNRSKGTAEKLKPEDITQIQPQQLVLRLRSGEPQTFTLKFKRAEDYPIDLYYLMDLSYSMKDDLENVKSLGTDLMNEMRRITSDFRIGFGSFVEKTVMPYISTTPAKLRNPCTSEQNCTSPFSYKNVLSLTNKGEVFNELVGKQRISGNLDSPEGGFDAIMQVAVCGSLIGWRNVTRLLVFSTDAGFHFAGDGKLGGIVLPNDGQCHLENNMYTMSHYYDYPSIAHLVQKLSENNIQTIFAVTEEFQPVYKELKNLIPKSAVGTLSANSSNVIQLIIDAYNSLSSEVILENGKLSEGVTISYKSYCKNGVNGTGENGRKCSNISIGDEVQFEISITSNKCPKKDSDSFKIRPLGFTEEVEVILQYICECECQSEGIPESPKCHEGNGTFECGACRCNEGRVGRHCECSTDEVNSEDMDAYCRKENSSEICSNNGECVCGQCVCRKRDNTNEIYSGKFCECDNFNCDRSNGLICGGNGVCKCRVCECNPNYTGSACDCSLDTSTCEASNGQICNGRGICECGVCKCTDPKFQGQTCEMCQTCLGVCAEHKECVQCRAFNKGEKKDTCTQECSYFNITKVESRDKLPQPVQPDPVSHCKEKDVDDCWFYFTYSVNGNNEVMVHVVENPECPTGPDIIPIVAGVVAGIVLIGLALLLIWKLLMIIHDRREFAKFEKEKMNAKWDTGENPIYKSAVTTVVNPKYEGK
The experiment in a line: flow cytometry, direct binding to wild-type K562 cells.
B3: the binding result is on record as “no binding (tested: 1 µM)”.

B4: the binding result is given as “no binding (tested: 1 µM)”.

For B1, the binding result is recorded as “no binding (tested: 1 µM)”.

For the molecule B2, the binding result was “no binding (tested: 1 µM)”.

For B5, the binding result is “no binding (tested: 1 µM)”.

The target of another assay is T1, αvβ3 integrin expressed on K562-αvβ3 …. The experiment in a line: flow cytometry, direct binding to K562-αvβ3 cells, anti-His detection.
As for B3, the binding result is reported as “no binding (tested: 1 µM)”.

In the case of B4, the binding result is reported as “no binding (tested: 1 µM)”.

On to B5, for which the binding result is “no binding (tested: 1 µM)”.

A further assay addresses T4, αvβ5 integrin expressed on K562-αvβ5 cells (UniProt P06756 31-1048; P18084 24-799).
T4 construct: whole, on cells
The experiment in a line: flow cytometry, direct binding to K562-αvβ5 cells.
Regarding B3, the binding result is recorded as “no binding (tested: 1 µM)”.

Consider B4, for which the binding result is listed as “no binding (tested: 1 µM)”.

Turning to B1, the binding result was “no binding (tested: 1 µM)”.

Turning to B2, the binding result is recorded as “no binding (tested: 1 µM)”.

As for B5, the binding result is recorded as “no binding (tested: 1 µM)”.
